The values that follow come from publication PMC5596431 (Cell Death and Differentiation, 2017).

In this assay the target is BiP (binding immunoglobulin protein), ER-resident chaperone (human (endogenous in H1299), UniProt P11021 19-654). The assay is described as follows: proximity ligation.
Sequence of BiP (binding immunoglobulin protein), ER-resident chaperone (P11021 19-654): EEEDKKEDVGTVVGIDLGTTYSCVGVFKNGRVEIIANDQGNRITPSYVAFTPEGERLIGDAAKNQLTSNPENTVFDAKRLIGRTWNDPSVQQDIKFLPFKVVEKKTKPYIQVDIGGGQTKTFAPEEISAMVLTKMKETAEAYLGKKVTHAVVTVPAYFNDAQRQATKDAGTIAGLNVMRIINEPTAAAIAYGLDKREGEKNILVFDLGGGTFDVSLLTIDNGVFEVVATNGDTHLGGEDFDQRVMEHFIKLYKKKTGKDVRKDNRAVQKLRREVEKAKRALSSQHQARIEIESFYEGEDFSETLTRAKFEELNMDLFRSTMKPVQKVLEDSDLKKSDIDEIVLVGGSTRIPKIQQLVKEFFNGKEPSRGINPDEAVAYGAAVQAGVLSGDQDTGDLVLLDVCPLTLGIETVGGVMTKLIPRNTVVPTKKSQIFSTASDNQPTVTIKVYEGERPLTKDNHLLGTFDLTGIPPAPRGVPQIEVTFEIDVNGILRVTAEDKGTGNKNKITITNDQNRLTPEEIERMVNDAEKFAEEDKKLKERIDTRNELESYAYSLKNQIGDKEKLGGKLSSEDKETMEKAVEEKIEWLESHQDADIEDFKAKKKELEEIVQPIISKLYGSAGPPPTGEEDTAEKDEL

B1: BIK, BH3-only pro-apoptotic member of the BCL-2 family (natural protein, human (endogenous in H1299), UniProt Q13323 1-160, looked up)
chain: MSEVRPLSRDILMETLLYEQLLEPPTMEVLGMTDSEEDLDPMEDFDSLECMEGSDALALRLACIGDEMDVSLRAPRLAQLSEVAMHSLGLAFIYDQTEDIRDVLRSFMDGFTTLKENIMRFWRSPNPGSWVSCEQVLLALLLLLALLLPLLSGGLHLLLK
On to B1, for which the “ratio of PLA BIK/BiP complexes in p53-positive/p53-negative cells, DMSO” value worked out at 1.3 ratio and the “ratio of PLA BIK/BiP complexes in p53-positive/p53-negative cells, thapsigargin” value is 0.4 ratio.
